These results are taken from patent US20260176352A1 (BIRD ROCK BIO, published 2026).

Where “and” joins values, the source holds several entries; their conditions need not be identical. Equal entries are not always repeated.

Broadly, the EC50 is the concentration at which the effect is half-maximal. A low value points to an effect from little substance. Usually Kd stands for the constant that tells how readily two partners part at equilibrium. High values mean a looser complex, low ones a tighter complex. The EC50 (read off the curve) is the midpoint of the concentration-response curve.

Assay [1] has as its target T1, A139 iCAPS (CB1 with ICL3 native sequence replaced with BRIL) (human, UniProt P21554 99-414).
T1 construct: The insert stands inside the chain in place of ICL3
In words: ELISA, purified IgG on A139 CB1 iCAPS. Here is the method: (§1) Purified IgG was tested for binding to purified CB1 receptor (CB1 Conformation Antigen Presenting System (iCAPS)) by ELISA. Non-biotinylated antigens (e.g. empty iCAPS) were coated directly on Maxisorp plates. The primary antibodies were purified IgGs with 1:3 serial dilutions, incubated on the plate for 1 hour. After 3 rounds of washing with PBST, secondary antibodies HRP goat anti-mouse IgG (Abmart) or HRP goat anti-human IgG (Sigma), depending on the species of the IgGs were added and incubated for another hour. The plates were washed three times with PBST, then developed with TMB (Biopanda). HCl was added to the plates to stop the reaction. Absorbance at 450 nm was read on Emax precision microplate reader (Molecular Devices).
Background: An ELISA detects its analyte on a solid surface through an enzyme-linked reagent.

Assay [2] has as its target T2, A138 iCAPS (CB1 with ICL3 native sequence replaced with protein 1 sequence) (human, UniProt P21554 99-414).
T2 construct: The insert stands inside the chain in place of ICL3
Briefly: ELISA, purified IgG on A138 CB1 iCAPS. Here is the method: as §1

Assay [3] concerns the target T3, native full length human CB1 receptor (cannabinoid 1 receptor) (human, UniProt P21554 1-472).
T3 construct: whole, on cells; also called A156; Native human CB1 TRex CHO A156
Briefly: binding to CB1 cells (FIG. 12); unlabeled P4B5.

In assay [4] the target is T3, native full length human CB1 receptor …. In words: flow cytometry, A156 cells; batch 1.25 mg/ml. On the procedure:
(§2) To further assess TRex CHO parental cells, TRex CHO A56 overexpressed CB1, Native human CB1 TRex CHO A156, 5HT2B, Mouse CB1 and human CB2 were used to examine the specificity of IgG binding. 100 μl of 1×10⁶ cells/ml of cells were incubated with primary antibody IgGs in 3-fold serial dilutions starting from 1 μM to 0.5 nM for 30 minutes on ice. After being washed with 200 μl of FACS buffer twice, cells were incubated with secondary antibody for 30 minutes on ice. Cells were washed with 200 μl of FACS buffer twice and transferred to BD Falcon 5 ml tube and analyzed by FACS.
(§3) For selected binders, full binding curves were generated on CB1 receptor by testing a range of concentrations. Three-fold serial dilutions from 1 μM to 0.1 μM were prepared. Selectivity was determined by measuring binding to cells expressing 5HT2B or CB2, relative to binding to A156 (native human CB1 receptor expressing) or A56 (overexpressed-CB1 receptor with the T210A modification and ICL3 replacement with fusion partner) by flow cytometry. […] PE-conjugated anti-mouse (for detection of anti-CB2) and PE conjugated anti-human antibodies were used to detect CB2 and 5HT2B, respectively.
Background: A flow cytometer gives signals particle by particle.

Assay [5] shares this target. In words: flow cytometry, TRexCHO A156 cells. Here is the method: (§4) After being washed with 200 μl of FACS buffer twice, cells were incubated with PE conjugated anti-human secondary antibody (Southern Biotech) for 30 minutes on ice. Cells were washed with 200 μl of FACS buffer twice and transferred to BD Falcon 5 ml tube and analyzed by flow cytometry (BD FACScalibur).

For assay [6] the target is unchanged. In words: flow cytometry, A156 cells; batch 1.01 mg/ml. Here is the method:
as §2, §3

Assay [7] addresses T4, TRex CHO A56 over-expressed CB1 (CB1 T210A/fusion partner) (UniProt P21554 1-472).
T4 construct: whole, on cells; The fusion partner stands inside the CB1 chain in place of ICL3, not at its end; also called Trex-CHO CB1 T210A/fusion partner; not shown: fusion partner that replaces ICL3
Briefly: flow cytometry, A56 cells; batch 1.01 mg/ml. Here is the method:
as §2, §3

Assay [8] has as its target T3, native full length human CB1 receptor …. Briefly: flow cytometry, TRex-CHO human CB1 cells; mean ± SD. Here is the method: (§5) TRex CHO parental cells, and TRex-CHO cells stably transfected with tetracycline inducible human CB1, human CB2 or mouse CB1 expression constructs were harvested. […] Cells were then centrifuged at 4° C. at 1600 rpm for 3 minutes; supernatant was aspirated and cells were washed with 200 μL FACS buffer. The washing procedure was repeated twice. After the final wash, cells were re-suspended in FACS buffer containing PE-conjugated anti-human Fc secondary antibody (1:200 dilutions) and incubated at 4° C. for 30 minutes. Cells were washed with 200 μL FACS buffer twice and analyzed by flow cytometry (Guava). Data analysis and measurement of binding affinity (KD) was performed using GraphPad Prism software.

The target is the same in assay [9]. Briefly: flow cytometry, TRex-CHO human CB1 cells; mean of batch 2. Here is the method:
as §5

Assay [10] has the same target. In words: flow cytometry, A156 cells; batch 1.01 mg/ml; A156 cells; batch 1.01 mg/ml, first of two such rows. Here is the method:
as §2, §3

The target in assay [11] is T4, TRex CHO A56 over-expressed CB1 (CB1 …). Briefly: flow cytometry, A56 cells; batch 1.25 mg/ml. On the procedure:
as §2, §3

The target of assay [12] is T3, native full length human CB1 receptor …. In words: flow cytometry on TRex-CHO cells with tetracycline inducible human CB1. Here is the method: as §5
The target of assay [13] is T5, human CB2 (human, UniProt P34972 1-360).
T5 construct: whole, on cells; also called TRexCHO Human CB2
In words: flow cytometry on TRex-CHO human CB2 cells, middle panel. Here is the method:
as §4

Assay [14] deals with T3, native full length human CB1 receptor …. Briefly: flow cytometry, A156 cells; batch 0.49 mg/ml. On the procedure:
as §2, §3

The target is the same in assay [15]. In words: flow cytometry, TRex-CHO human CB1 cells; mean of batch 1. On the procedure:
as §5

Assay [16] addresses 5HT2B (expression cell line) (Homo sapiens (Human), UniProt P41595 1-481). In words: flow cytometry, IgG titrated on cells. On the procedure:
as §2, §3

Assay [17] concerns the target T3, native full length human CB1 receptor …. In words: flow cytometry, IgG titrated on cells. Here is the method:
as §2, §3

Assay [18] concerns the target T4, TRex CHO A56 over-expressed CB1 (CB1 …). In words: flow cytometry, IgG titrated on cells. Here is the method:
as §2, §3

Assay [19] has the same target. In words: flow cytometry, TRexCHO A56 cells. Here is the method:
as §4

Assay [20] has as its target T3, native full length human CB1 receptor …. Briefly: cell-based or functional assay.
Assay [21] has the same target. In words: cell-based or functional assay. This is another data set of the same source.
For assay [22] the target is unchanged. Briefly: flow cytometry, TRex-CHO human CB1 cells; mean of batch 3. Here is the method: as §5
Assay [23] has the same target. Briefly: cell-based or functional assay. This is another data set of the same source.
The target of assay [24] is T6, mouse CB1 (mouse, UniProt P47746 1-473).
T6 construct: whole, on cells; also called TRexCHO Mouse CB1
Briefly: flow cytometry on TRex-CHO mouse CB1 cells, lower panel. On the procedure:
as §4

The target of assay [25] is T4, TRex CHO A56 over-expressed CB1 (CB1 …). In words: flow cytometry, A56 cells; batch 4.85 mg/ml. Here is the method:
as §2, §3

Assay [26] shares this target. In words: flow cytometry, A56 cells; batch 5.78 mg/ml. On the procedure: as §2, §3
For assay [27] the target is unchanged. In words: flow cytometry, A56 cells; batch 5.28 mg/ml. On the procedure: as §2, §3
Assay [28] has as its target T3, native full length human CB1 receptor …. In words: flow cytometry, A156 cells; batch 5.28 mg/ml. On the procedure:
as §2, §3

The target of assay [29] is T5, human CB2. In words: flow cytometry, IgG titrated on cells. Here is the method: as §2, §3
The target of assay [30] is T3, native full length human CB1 receptor …. In words: flow cytometry, A156 cells; batch 5.78 mg/ml. On the procedure: as §2, §3
Assay [31] shares this target. Briefly: flow cytometry, A156 cells; batch 4.85 mg/ml. Here is the method: as §2, §3
The target in assay [32] is T6, mouse CB1. In words: flow cytometry on cells expressing the target.
Assay [33] has as its target T3, native full length human CB1 receptor …. Briefly: flow cytometry, A156 cells; batch 5.9 mg/ml. Here is the method: as §2, §3
Assay [34] has as its target T4, TRex CHO A56 over-expressed CB1 (CB1 …). In words: flow cytometry, A56 cells; batch 5.9 mg/ml. On the procedure: as §2, §3

T6 sequence (P47746 whole entry): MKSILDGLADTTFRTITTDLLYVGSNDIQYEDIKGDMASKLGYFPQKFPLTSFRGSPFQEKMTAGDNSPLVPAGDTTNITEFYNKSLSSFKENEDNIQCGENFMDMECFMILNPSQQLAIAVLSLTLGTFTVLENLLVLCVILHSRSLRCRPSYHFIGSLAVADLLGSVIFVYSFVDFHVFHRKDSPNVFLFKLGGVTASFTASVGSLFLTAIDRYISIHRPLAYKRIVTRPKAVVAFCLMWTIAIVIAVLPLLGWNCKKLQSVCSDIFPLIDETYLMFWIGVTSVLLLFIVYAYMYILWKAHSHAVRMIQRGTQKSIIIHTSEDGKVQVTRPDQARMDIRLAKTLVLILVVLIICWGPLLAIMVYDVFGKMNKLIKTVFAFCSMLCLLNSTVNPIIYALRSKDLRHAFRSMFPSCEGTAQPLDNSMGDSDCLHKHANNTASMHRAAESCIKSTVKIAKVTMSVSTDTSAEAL
T5 sequence (P34972 whole entry): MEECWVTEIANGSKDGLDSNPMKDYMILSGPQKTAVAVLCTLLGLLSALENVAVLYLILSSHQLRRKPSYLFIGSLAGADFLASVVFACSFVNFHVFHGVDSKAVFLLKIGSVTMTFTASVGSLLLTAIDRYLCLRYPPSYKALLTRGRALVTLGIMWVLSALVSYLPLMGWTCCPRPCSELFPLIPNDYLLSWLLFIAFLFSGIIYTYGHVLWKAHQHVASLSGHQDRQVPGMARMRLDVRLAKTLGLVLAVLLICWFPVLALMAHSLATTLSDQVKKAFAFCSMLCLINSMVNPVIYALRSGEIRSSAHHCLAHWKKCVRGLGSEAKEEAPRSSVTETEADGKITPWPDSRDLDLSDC
Sequence of 5HT2B (expression cell line) (P41595 whole entry): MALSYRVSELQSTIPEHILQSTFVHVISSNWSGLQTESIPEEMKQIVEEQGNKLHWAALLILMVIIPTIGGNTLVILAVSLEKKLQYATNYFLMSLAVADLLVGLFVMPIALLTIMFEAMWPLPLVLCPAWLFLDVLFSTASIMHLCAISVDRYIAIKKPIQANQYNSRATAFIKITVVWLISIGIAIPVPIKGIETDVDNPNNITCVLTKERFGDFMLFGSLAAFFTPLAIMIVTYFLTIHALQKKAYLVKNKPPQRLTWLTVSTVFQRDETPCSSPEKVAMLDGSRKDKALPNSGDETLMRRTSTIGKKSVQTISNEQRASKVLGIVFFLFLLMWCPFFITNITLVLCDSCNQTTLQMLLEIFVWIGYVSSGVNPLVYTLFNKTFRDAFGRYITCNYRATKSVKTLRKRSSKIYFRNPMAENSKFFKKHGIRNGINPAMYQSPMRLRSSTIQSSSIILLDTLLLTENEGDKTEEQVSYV

B1: PA2LR3-P4B5 (chimeric) (antibody, human IgG1, kappa, V domains shown)
VH: EVQLQQSGAELVRPGSSVKISCKASGYAFSYYWMNWVKQRPGQGLEWIGQIYPGDGDTNYSGRFKGKATLTADKSSSTAYIQLSSLTSEDSAVYFCARSHGNYFPYWGQGTLVTVSA
VL: DIVLNQSPAIMSASLGERVTMTCTASSSVSSSYLHWYQQKPGSSPKLWIYSTSNLASGVPARFSGSGSGTSYSLTISSMEAEDAATYYCHQYHRSPLTFGAGTKLEIKR
For B1, the concentration giving a half-maximal response (EC50) in assay [1] was 0.24 nM; in assay [2] it was 0.24 nM; in [3] it was 60.5 nM.

B2: PA13R3-P1C4 (chimeric) IgG (antibody, V domains shown)
VH: EVQLQQSGAELVRPGVSVKISCKASGYEFSYYWMNWVKQRPGQGLEWIGQIYPGDGETKYNGKFKGKATLTADKSSNTAYMQLSSLTSEDSAVYFCARSHGNYLPYWGQGTLVTVSA
VL: DIVLTQSPAIMSASLGERVTMTCTASSSVSSSYLHWYQQKPGSSPKLWIYSTSNLASGVPARFSGSGSGTSYSLTISSMEAEDAATYYCHQYHRSPPTFGAGTKLELKR
notes: Phage-derived mouse variable regions on human constant regions; also called Chimeric P1C4-IgG; PA13R3-P1C4 IgG
Turning to B2, the Kd in assay [4] amounted to 72.6 nM; in assay [5], 25 nM; in [6], 171 nM; in assay [7] it was 27.3 nM; in assay [8], 103 nM; in assay [9] it was 116 nM. The Kd came out at 40.5 nM in assay [10]; 50.6 nM in assay [11]; 187 nM in [14]; 92 nM in assay [15]; 10.5 nM in assay [19]; 96 nM in [22]. Moreover, the concentration for a half-maximal effect (EC50) in assay [1] was 0.175 nM; in assay [2] it was 0.172 nM. The “EC50 (read off the curve)” value in assay [12] is ~60 nM and ~40 nM; in [17] it was about 30 nM; in [18], about 20 nM. Moreover, the binding result is “no binding (tested: about 300 nM (last point))” with human CB2 [13], “no binding (tested: 1000 nM)” in assay [16] and “no binding (tested: about 300 nM (last point))” in the assay with mouse CB1 [24]. Besides, the “cAMP IC50 (nM) Mean of Batch 1 [n]” value in [20] is 120 nM. The “cAMP IC50 (nM) Mean of Batch 2 [n]” value in [20] is 155 nM. Besides, the “IC50, cAMP functional antagonist assay” value in assay [21] came out at 90 nM. For the same molecule, the “IC50 (nM), cAMP assay” value in [23] was found to be 93 nM.

B3: 36E12B6C2 IgG (hybridoma-derived) (antibody, V domains shown)
VH: QVQLQQSGAELVRPGSSVKISCKASGYEFSYYWMNWVKQRPGQGLQWIGQIYPGDGDTNYNGKFKGKATLTADKSSSTAYMHLTSLTSEDSAVYFCARSGGNPFAFWGQGTLVTVSA
VL: DIQMTQTSSSLSASLGDRVTFSCRASQDISNYLNWYQQKPDGTVKLLIYYTSRLHSGVTSRFRGSGSGTDYSLTISNLEQEDVATYFCQQGHTLPWSFGGGTKLEIKR
Consider B3, for which the dissociation constant (Kd) is 29.3 nM in [25]; 69.4 nM in assay [26]; 51.9 nM in [27]; 27.7 nM in assay [28]; 151 nM in [30]; 64 nM in [31]. Also, the dissociation constant (Kd) was 26 nM in [33] and 60.2 nM in [34]. Further, the binding result in assay [16] is “no binding (tested: 1000 nM)”; in the assay with human CB2 [29] it was “no binding (tested: 1000 nM)”; with mouse CB1 [32] it was “no binding (tested: 1 µM)”. Also, the “EC50 (read off the curve)” value in assay [17] was about 60 nM; in assay [18] it was about 40 nM.
